Measured values from the nanobody polyreactivity screen of Harvey et al. (2022).

Assay: yeast display, Sf9 membrane polyspecificity reagent, FACS + sequencing; frameworks hold sequencing errors
In short: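 Synthetic nanobody libraries on Saccharomyces cerevisiae BJ5465 were galactose-induced for 36–48 hours, stained 1 hour at 4 °C with 10% biotinylated, detergent-solubilized Sf9 membrane reagent and enriched on streptavidin microbeads. FACS then separated cells into low and high (top ~1%) gates by anti-HA (expression) and streptavidin (reagent binding) fluorescence. Genes were colony-PCR amplified, MiSeq 2 × 250 sequenced and CDR-length filtered. A clone's polyreactivity label is that of its gate of origin.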

Sequence: QFQLVYSGGGLVQAGGSLRLSCAASGRTYGIYAMVWYRQAPGKERDLVAAISSDASTSYADSLKGRFTISRDNAKITVYLQMNSLKPEDTAVYYCGADPGTYYEWGYVYWGQGTQVTVSS
- polyreactivity (PSR sort gate): low polyreactivity

Sequence: QVQLVESGGGLVQAGGSLRLSCDASGSIFAPNSMGWYRQAPGKERELVAAITSSGCRTYYADSVKGRFTISRDNAMNTFYLQMNSLKPVDSAVYYWIAGFYVRRDYDYWGQGTQVTVSS
- polyreactivity (PSR sort gate): low polyreactivity

Sequence: QVQLVESGGGLVQAGGSLRLSCAASGSTFRSYARGWYRQAPGKERELVAVISKRGGSTYYADSVKGRFTISRDNAKNTVYLQMNSLKPEDTAVYYCAADVYRYYAPNDYYWGQGTQVTVSS
- polyreactivity (PSR sort gate): high polyreactivity

Sequence: QVQLVESGGGLVQAGGSLRLSCAASGFTFGDYAMGWYRQAPGKERELVAAITSTGGSTYYADSVKGRFTISRDNEKHSVYLQMNCLKPEDTAVYYCAKPDYYRMGYWGQGTQVTVCS
- polyreactivity (PSR sort gate): low polyreactivity

Sequence: QVLLVESGGCLVQEGGSLRFSCAASGFIFAYYAMGWYRPAPGKERELVAAITSDGATYYADSVKGRFTISRDNAKNTVYLQMNSLKPEATAVYYCNTYWLLRPGYIYWGQGTQVTVSS
- polyreactivity (PSR sort gate): high polyreactivity

Sequence: QVQLVESGGGLVQAGGSLRLSCAASGRTFSYYAMGWYRQAPGKERELVAAIYRAGRTNYADSVKGRFTISRDNAKNNVYLQMHSLKPEDTAVYYCAADLAYGRPFVSYRTRACGQGTQVTVSS
- polyreactivity (PSR sort gate): high polyreactivity

Sequence: QVQLVESGGGLVQAGGSLRLSCAASGFTFYYYTMGWYRQAPGKERELVAGITSRGGSTTYADSVKGRFTISRDNAKNTVYLQMNSLKPEDTAVYYCNARWAVHSGYDYWGQGTLVTVSS
- polyreactivity (PSR sort gate): high polyreactivity

Sequence: QVQLVESGGGLVQAGGSLRLSCAASGRIFGINAMGWYRQAPGKERELVAAINRSGDTTNYADSVKGRFTISRDNAKNTVYLQMNSLKPEDTAVYYCAADGYRQVYYRYYYWGQGTQVTVSS
- polyreactivity (PSR sort gate): high polyreactivity

Sequence: QVQLVESGGGLVQAGGSLRLSCAASGRTLGVYAMGWSRQAPGKERELVAAIRYRGGITYYADSVKGRFTISRDNAKNTVYLQMNSLKPEDTAVYYCAADWAWDTKSAPAYPRAYDYWGQGTQVTVSS
- polyreactivity (PSR sort gate): low polyreactivity

Sequence: QVQLVEAGGGLVQAGGSLRLSCAASGYIFAYYAMGWYRQAPGKERELVATIRSGGSTNYADSVKGRFTISRDNGKNTVYLQMNSLKPEDTAVYYCARDDATAGDYWGQGTQVTVSS
- polyreactivity (PSR sort gate): low polyreactivity

Sequence: QVQLVESGGGLVQAGGSLRLSCAASGRTFFFYAMGWYRQAPGKERELVASITWSGGTRTYYADSVKGRFTISRDNAKNTVYLQMNSLKPEDTAFYYCAATDSSYWFNRYGGKYYYWGQGTQVTVSS
- polyreactivity (PSR sort gate): high polyreactivity

Sequence: QVQLVESGGGLVQAGGSLRLISAASGSTFKIYAMGWYRQAPGKERELVAAITWSGGSTYYADSVKGRFTISRDNAKNTVYLQMNSLKPEDPAVYYCAAVQTYSRYYYWGQGTQVTVSS
- polyreactivity (PSR sort gate): high polyreactivity

Sequence: QVQLVESGGGLVQAGGSLRLSCAASGSTFSAYGMGWYRQAPGKEMELVASISWNGGSTYYADSVQGRFTISGDNAKNTVYLQMNSLKPEDTAVYYCNTELVGHPDWLSWRYYYWGQGTQVTVSS
- polyreactivity (PSR sort gate): low polyreactivity

Sequence: QVQLEESGGGIVQAGGSLRLSCAASGSTFNYYAMGWYRQAPGKERELVAAINSNGGSTYYADSVKGRFTISRDNAKNTVYLQMNSPKPEDTAVYLCAADISPYDYDYWGQGTQVTVSS
- polyreactivity (PSR sort gate): high polyreactivity

Sequence: QVMLVESGGGLVQAGGSLRLSCAASGSIFKSNAMGWYRQAPGKERELVAAITRSGGSTYYADSVKGRFTISRDNAKYTVYLQMNSLKPEDTAVYYCARRPGKGNNYWGKGTQVTVSS
- polyreactivity (PSR sort gate): high polyreactivity

Sequence: QVQLVESGGGLVQAGGSLRLSCAASGGTFAVNAMGWYRQAPGKEREFVAAISSRGSTSYADSVKGRFTISRDNAKNTVYLQMNSLKPEDTAVYYCAKRQGYWFDYWGQGTQVTVSS
- polyreactivity (PSR sort gate): high polyreactivity

Sequence: QVQLVESGGGLVQAGGSLRLSCAASGFIYGGNPRGWYRQAPGKERELVAANRSGGSTYYADSVKGRFTISRDNAKNTVYLQMNILKPEDTAVYYCAVRLRYAYRARGNYWGQGTQVTVSS
- polyreactivity (PSR sort gate): low polyreactivity

Sequence: QVQLVESRGGLVQAGGSLRLSCGASGFIFKPYAMGWYRQAPGKERELVASISTGARTYYADSVKGRFTISRDNAKNTVYLQMNSLKPEDTGVYYCAAAYSRWITRYDYWGQGTQVTVSS
- polyreactivity (PSR sort gate): high polyreactivity

Sequence: QVQLVESGGGLVQAGGSLRLSCAATGRIFIAYAMGWYRQAPGKEREFVAAISSGGGSTYYADSVKGRFTISRDNAKNTVYLQMNSLKPEDTAVYYCGAWTLYWSHTTWSYDYWGQGTQGTVSS
- polyreactivity (PSR sort gate): low polyreactivity

Sequence: QVQLVESGGGIVQAGGSLRLSCAASGIIFTGNAMGWYIQAPGKERELVAAITSGDTTNYADSVKGRFTISRDNAKNTVYLQMNSLKPEDTAVYYCAKELQVRQAGDYWGQGTQVTVSS
- polyreactivity (PSR sort gate): low polyreactivity

Sequence: QVQLVESGGGLVQAGGSLRLSCAATGFTFTGNAMGWYRQAPGKQRELVAAINTGTGGSTYYADSVKGRFTISRDNAKNTVYLQMNSLKPVDTAVYYPIGVGGDYDYWGQGTQVTVSS
- polyreactivity (PSR sort gate): low polyreactivity

Sequence: QVQLVESGGGLVQAGGSLRLTCAASGFTFGEYAMGWYRQAPGKERELVAVITSGGGRTYYADSVKGRFTISRDNAKNNVYLEMNSLNPEDTAAYYCAAQPKPQLERKDDYWGQGTQVTVSS
- polyreactivity (PSR sort gate): high polyreactivity

Sequence: QFQLVESGGGLVQAGGSLRLSCAASGSIFGYYDMGWYRQAPGKERELVAAISWSGDTTYYADSVKGRFTISRDNAKNTVDLQMNILTPEDTAVYYCSAEFYDWLGGMGYWGQGTQVNVSS
- polyreactivity (PSR sort gate): low polyreactivity

Sequence: QVQLVESGGGLGQAGGSLRLSCAASGGTFYAYAMGWYRQAPGKEREFVAAISRRGGSTYYADSVKGRFTISRDNAKNTVYLQMHSLKPEDNAVYYCKALYSSSPGAKPWGEYNYWGQGTQVTVSS
- polyreactivity (PSR sort gate): high polyreactivity

Sequence: QVQLVESGGGLVQAGGSLRLTCAASGSTFDTYAMGWYRQAPGKERELVAAISGSGVRTYYADSVKGRFTISRDNAKNTVYLQMNSLKPEDTAVYYCAARYPRRCGEYGYWGQGTQVTVSS
- polyreactivity (PSR sort gate): high polyreactivity

Sequence: QVQLVESGGGLVQAGGSLRLSCAASGSIFFSNVMGWSRPAPGKERELVAAITRGGGTNYADSVKGRFTISRDNAKNTVYLQMNSLKPEDTAVYYCNRDPQKYRWIPRYDYWGQGTQVTVSS
- polyreactivity (PSR sort gate): low polyreactivity

Sequence: QVQLVESGGGLVQAGGSLRLSCAASGSIFHFYAMGWYRQAPGKERELVAAITSGTSTYYADSVKGRFTISRDNAKNTVYLQMNSLKPEDTAVYYCAAEASHYYYNAYPSYGGSDYWGQGTQVTVSS
- polyreactivity (PSR sort gate): low polyreactivity

Sequence: QVQLVESGGGIVQAGGSLRLSCAASGFTFTYNTKGWYRQEPGKERELVAAISRSGGSTYYADSVKGRFTISRDNAKNTVYLQLNSLKPEDSAVYYCAKQRRDDNGGYWGLGTQVTVSS
- polyreactivity (PSR sort gate): high polyreactivity

Sequence: QVQLVESGGGLVQAGGSLRLSCAASGIIFHFNDMGWYRQAPGKERELVAAITSGGSTNYADSVKGRFTISRDNAKNTVYLQMNSLKPEDTAVYYCAARRGLRLFAYRHGYWGQGTQVTVSS
- polyreactivity (PSR sort gate): low polyreactivity

Sequence: QVQLVESGGGLVQAGGSLRLSCAASGGNFKQYAMGWYRQAPGKERELVAAISRRGGSTYYADSVKGRFTISRDNAKNTVYLQMNSLKPEDTAVYYCAAPGPTQSTQRGGYWGQGTQVTVSS
- polyreactivity (PSR sort gate): high polyreactivity

Sequence: QVQLVESGGGLVQAGGSLRLSCAASGFTFSPYVMGWYRQAPGKERELVATITAGGSSTFYADSVKGRFTISRDNAKNTVYLQMNSLKPEDTAVYYCNTVSPSFVYESTSDRFDYWGQGTQVTVSS
- polyreactivity (PSR sort gate): low polyreactivity

Sequence: QVQVVESGGGLVQAGGSLRLSCAASGSTFVIYDMGWYRQAPGKERELVAVITIIGGSTYYADAVKGRFTISRDNAKNTVYLELNSLKPEDTAVYDCAVEVGYTDSPYSYDYWGQGTQVTVSS
- polyreactivity (PSR sort gate): low polyreactivity

Sequence: QVQIVESGGGLVQAGGSLRLTCAASGSIFGDYAMGWYRQASGKERELVASISESGGSTYYADSVKGRFTISRDNAKNTVYLQMISLKPEDTAVYYCNTDYDYGWWDLGEYEYWGHGTQVTVSS
- polyreactivity (PSR sort gate): low polyreactivity

Sequence: QVQLVESGGGLVQAGGSLRLSCAASGLTFTSYAMGWYRQAPGKERELVAAITSGGSTYFADSVKGRFTISRDNAKNTVYLQMNSLKPEDTAVYYCNVTVYTRWYRSHSFWSTFRMDYWGQGTQVTVSS
- polyreactivity (PSR sort gate): low polyreactivity

Sequence: QVQLVESGGGLVQAGGSLRLSCAASGSTFWANAMGWYRPAPGKERELLAGITWNAGSTYYADSVKGRYTISRDNAKNNVYLQLNSLKPEDTAVYYCAAYYHFQGWGPGYNSCGQGTQVTVSS
- polyreactivity (PSR sort gate): low polyreactivity

Sequence: QVQLVESGGGLVQAGGSLRLSCAASGYTFAIYAMGWYRQAPGKERELVAAITWNGGSTYYADSVKGRFTISRDNAKNTVFLQMNSLKPEDTAVYYCAADYWSGGYDYWGQGTQVTVSS
- polyreactivity (PSR sort gate): low polyreactivity

Sequence: QVQLVESGGGLVQAGGSLRLSCAASGRIFFAYAMGWYRQAPGKERELVAAIRFSGGTTYYADSVKGRLTFSRDNAKNTVYLQMNSLKQEDTAVYYFAAGRRRSSSGYGYWGKGTQVTVSS
- polyreactivity (PSR sort gate): high polyreactivity

Sequence: QVQLVESGGGLVQAGGSLRLSCAASGRISIKNAMGWYRQAPGQERELVAAIRWSADSTYYADSVKGRFTISRDNAKTTVYLQMNSLKPEDTAVYYCAATGRLRYYWGQGTQVNVSS
- polyreactivity (PSR sort gate): high polyreactivity

Sequence: QVQLVESGGGLVKAGGSLSLICAASGFTFGVYAMGRYRQAPGKERELVAAIRRTGGSTYYADSVKGRFTISRDNAKNTVYLQMNSLKPEDTAVYYCAAHAISYQSRYRYRYGSVDYWGQGTQVTVSS
- polyreactivity (PSR sort gate): high polyreactivity

Sequence: QVQLQESGGRLVQASGSIFHEPNMGWHRQAPGKERELVATISDGAITNYADSVKGRFTISRDNAKNTVYLQMNSLIPEDTAVYYCAATGGLNGALSRLEYWGQGTQVSVSS
- polyreactivity (PSR sort gate): high polyreactivity

Sequence: QVQLVESGGGLVQAGGSLRLSCAASGSTFVTNDMGWSRQAPGKERELVAAISSGTSTNYAYSVKGRFTISRDNAKNTVYLQMNSQKPEDTAVYYCAADSLKRYDYWGQGTQVTVSS
- polyreactivity (PSR sort gate): low polyreactivity

Sequence: QVQHVESRGGLVQAGGSLRLRCAASGRIFSHYAMGWYRQAPGKERELVAAITSDGSTNYADSVKGRFTISRDNAKNTVYLQMNSLKPEDTAVYYCAKYVHIPYYYYLFGSYDYWGQGSQVTVSS
- polyreactivity (PSR sort gate): low polyreactivity

Sequence: QVQLVESGGGLVQAGGSLRLSCAASGSIFGDYAMGWSSQAPGKEGELVAAISRGDGTYYADSVKGRFTISRDNAKNTVYLQMNSLKPEDTAVYYCNAGGRYHAPSGDFWGQGSQVTVSS
- polyreactivity (PSR sort gate): low polyreactivity
